# Where a chain is given by its changes, count along the chain named.
# T1: APBA2_2, Q99767
# T1 sequence (Q99767 654-744, limits assumed, looked up): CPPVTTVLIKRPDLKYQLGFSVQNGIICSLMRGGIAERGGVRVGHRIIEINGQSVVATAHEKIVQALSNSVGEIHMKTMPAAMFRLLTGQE
# T2: ARHGAP21, Q5T5U3
# T2 sequence (Q5T5U3 45-169, limits assumed, looked up): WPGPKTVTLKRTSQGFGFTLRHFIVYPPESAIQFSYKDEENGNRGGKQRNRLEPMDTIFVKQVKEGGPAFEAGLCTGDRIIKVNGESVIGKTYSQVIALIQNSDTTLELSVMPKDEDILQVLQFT
# T3: GRIP1_4, Q9Y3R0
# T3 sequence (Q9Y3R0 467-571, limits assumed, looked up): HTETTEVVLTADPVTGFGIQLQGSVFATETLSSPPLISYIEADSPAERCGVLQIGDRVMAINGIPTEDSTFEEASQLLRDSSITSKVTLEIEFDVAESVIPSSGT
# T4: HTRA4, P83105
# T4 sequence (P83105 378-476, limits assumed, looked up): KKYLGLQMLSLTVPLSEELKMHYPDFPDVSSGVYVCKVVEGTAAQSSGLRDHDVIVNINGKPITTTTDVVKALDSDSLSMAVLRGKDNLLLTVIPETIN
# T5: LIN7B, Q9HAP6
# T5 sequence (Q9HAP6 88-185, limits assumed, looked up): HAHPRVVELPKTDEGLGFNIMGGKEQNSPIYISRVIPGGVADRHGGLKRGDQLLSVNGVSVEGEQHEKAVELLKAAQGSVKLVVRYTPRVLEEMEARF
# T6: LIN7C, Q9NUP9
# T6 sequence (Q9NUP9 88-185, limits assumed, looked up): T5 sequence (Q9HAP6 88-185, limits assumed, looked up) with A2S, D13E, V35I, V40I, Q65H, S79K, R89K, A96S
# T7: LNX2_3, Q8N448
# T7 sequence (Q8N448 463-564, limits assumed, looked up): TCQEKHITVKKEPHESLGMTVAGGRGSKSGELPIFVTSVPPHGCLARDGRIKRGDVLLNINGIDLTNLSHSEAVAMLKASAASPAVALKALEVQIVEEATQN
# T8: NHERF3_4, Q5T2W1
# T8 sequence (Q5T2W1 373-468, limits assumed, looked up): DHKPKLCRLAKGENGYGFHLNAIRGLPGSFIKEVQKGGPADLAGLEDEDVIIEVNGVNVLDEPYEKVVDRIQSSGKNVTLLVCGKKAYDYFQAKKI
# T9: PDZD2_2, O15018
# T9 sequence (O15018 329-429, limits assumed, looked up): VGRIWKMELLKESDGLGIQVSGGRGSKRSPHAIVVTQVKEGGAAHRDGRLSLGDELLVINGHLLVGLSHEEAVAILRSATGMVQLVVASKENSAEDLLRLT
# T10: PDZRN3_1, Q9UPQ7
# T10 sequence (Q9UPQ7 244-349, limits assumed, looked up): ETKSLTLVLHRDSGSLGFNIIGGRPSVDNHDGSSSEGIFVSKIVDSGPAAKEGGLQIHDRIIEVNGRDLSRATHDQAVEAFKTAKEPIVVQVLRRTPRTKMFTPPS
# T11: SNTB1, Q13884
# T11 sequence (Q13884 107-205, limits assumed, looked up): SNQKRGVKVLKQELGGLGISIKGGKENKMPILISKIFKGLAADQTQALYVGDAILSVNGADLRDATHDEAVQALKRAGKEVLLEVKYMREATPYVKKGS
# T12: SNTG2, Q9NY99
# T12 sequence (Q9NY99 68-166, limits assumed, looked up): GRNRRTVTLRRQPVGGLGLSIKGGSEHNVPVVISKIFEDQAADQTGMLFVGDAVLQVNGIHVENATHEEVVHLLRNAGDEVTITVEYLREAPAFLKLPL
# Key:
# Assay in all cases: holdup assay
# Set-up in all cases: key: below the threshold = too weak to quantify, mostly under pKd 3.1 to 4
# [1] = biological target: T1, APBA2_2, Q99767
# [2] = biological target: T2, ARHGAP21, Q5T5U3
# [3] = biological target: DLG1_2, Q12959
# Chain of DLG1_2, Q12959 (Q12959 314-412): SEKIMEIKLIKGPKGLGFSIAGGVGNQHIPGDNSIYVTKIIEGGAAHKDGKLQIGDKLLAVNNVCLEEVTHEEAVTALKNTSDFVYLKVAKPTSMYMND
# [4] = biological target: DLG1_3, Q12959
# Chain of DLG1_3, Q12959 (Q12959 457-571): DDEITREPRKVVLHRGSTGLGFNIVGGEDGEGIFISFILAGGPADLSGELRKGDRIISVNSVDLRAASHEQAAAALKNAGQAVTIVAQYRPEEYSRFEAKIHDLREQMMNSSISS
# [5] = biological target: DLG4_3, P78352
# Chain of DLG4_3, P78352 (P78352 306-403): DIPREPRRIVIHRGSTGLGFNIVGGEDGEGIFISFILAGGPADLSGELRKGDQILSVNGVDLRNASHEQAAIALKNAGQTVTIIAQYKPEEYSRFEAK
# [6] = biological target: FRMPD2_1, Q68DX3
# Chain of FRMPD2_1, Q68DX3 (Q68DX3 770-861): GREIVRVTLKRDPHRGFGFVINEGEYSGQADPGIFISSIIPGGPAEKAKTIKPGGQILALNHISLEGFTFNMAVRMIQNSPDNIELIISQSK
# [7] = biological target: T3, GRIP1_4, Q9Y3R0
# [8] = biological target: T4, HTRA4, P83105
# [9] = biological target: IL16_4, Q14005
# Chain of IL16_4, Q14005 (Q14005 1229-1329): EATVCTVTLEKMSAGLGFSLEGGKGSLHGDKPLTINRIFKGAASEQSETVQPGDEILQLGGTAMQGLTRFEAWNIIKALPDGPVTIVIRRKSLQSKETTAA
# [10] = biological target: Inadl_3, Q8NI35
# Chain of Inadl_3, Q8NI35 (Q8NI35 359-469): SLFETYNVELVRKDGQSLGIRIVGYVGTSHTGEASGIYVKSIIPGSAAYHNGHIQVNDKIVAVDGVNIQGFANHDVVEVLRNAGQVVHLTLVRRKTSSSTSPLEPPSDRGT
# [11] = biological target: Inadl_6, Q8NI35
# Chain of Inadl_6, Q8NI35 (Q8NI35 1058-1167): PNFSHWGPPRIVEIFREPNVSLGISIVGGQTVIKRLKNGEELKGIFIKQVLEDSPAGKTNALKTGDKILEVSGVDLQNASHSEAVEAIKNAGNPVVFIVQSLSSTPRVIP
# [12] = biological target: LAP2, Q96RT1
# Chain of LAP2, Q96RT1 (Q96RT1 other isoform, or with tags, fused parts or gaps): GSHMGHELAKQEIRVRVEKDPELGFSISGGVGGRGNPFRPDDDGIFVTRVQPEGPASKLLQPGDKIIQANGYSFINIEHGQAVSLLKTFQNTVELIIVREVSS
# [13] = biological target: T5, LIN7B, Q9HAP6
# [14] = biological target: T6, LIN7C, Q9NUP9
# [15] = biological target: LNX1_2, Q8TBB1
# Chain of LNX1_2, Q8TBB1 (Q8TBB1 371-470): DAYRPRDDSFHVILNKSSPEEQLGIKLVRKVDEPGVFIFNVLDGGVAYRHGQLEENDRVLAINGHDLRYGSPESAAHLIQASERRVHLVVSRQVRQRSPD
# [16] = biological target: LNX1_3, Q8TBB1
# Chain of LNX1_3, Q8TBB1 (Q8TBB1 500-596): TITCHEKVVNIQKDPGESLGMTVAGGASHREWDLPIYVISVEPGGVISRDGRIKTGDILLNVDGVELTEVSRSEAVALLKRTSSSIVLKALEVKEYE
# [17] = biological target: T7, LNX2_3, Q8N448
# [18] = biological target: MAGI2_4, Q86UL8
# Chain of MAGI2_4, Q86UL8 (Q86UL8 772-865): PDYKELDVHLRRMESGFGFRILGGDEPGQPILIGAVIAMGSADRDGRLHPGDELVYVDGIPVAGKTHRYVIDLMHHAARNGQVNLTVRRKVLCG
# [19] = biological target: T8, NHERF3_4, Q5T2W1
# [20] = biological target: T9, PDZD2_2, O15018
# [21] = biological target: T10, PDZRN3_1, Q9UPQ7
# [22] = biological target: SCRIB_2, Q14160
# Chain of SCRIB_2, Q14160 (Q14160 857-960): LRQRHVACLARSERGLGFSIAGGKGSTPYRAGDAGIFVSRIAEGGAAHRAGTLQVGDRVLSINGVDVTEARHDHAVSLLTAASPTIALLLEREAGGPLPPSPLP
# [23] = biological target: T11, SNTB1, Q13884
# [24] = biological target: T12, SNTG2, Q9NY99
# [25] = biological target: TJP1_3, Q07157
# Chain of TJP1_3, Q07157 (Q07157 416-512): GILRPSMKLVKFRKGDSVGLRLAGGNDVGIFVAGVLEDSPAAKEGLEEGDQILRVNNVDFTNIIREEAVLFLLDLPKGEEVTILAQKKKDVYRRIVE
# [26] = plain residues with an end cap or a label only (N-terminal biotin on a linker: ado-ado)
# [27] = plain residues with an end cap or a label only (N-terminal biotin on a linker: (peg)3)
binder,measurement,setting,value
"PKRSFIESNV [TANC1, Q9C0D5]",pKd,[1]; [26],below the threshold
same,pKd,[2]; [26],3.85
same,pKd,[3]; [26],4.96
same,pKd,[4]; [26],4.32
same,pKd,[5]; [26],4.27
same,pKd,[6]; [26],below the threshold
same,pKd,[7]; [26],below the threshold
same,pKd,[8]; [26],3.92
same,pKd,[9]; [26],below the threshold
same,pKd,[10]; [26],3.56
same,pKd,[11]; [26],below the threshold
same,pKd,[12]; [26],5.27
same,pKd,[13]; [26],below the threshold
same,pKd,[14]; [26],below the threshold
same,pKd,[15]; [26],below the threshold
same,pKd,[16]; [26],below the threshold
same,pKd,[17]; [26],below the threshold
same,pKd,[18]; [26],below the threshold
same,pKd,[19]; [26],below the threshold
same,pKd,[20]; [26],4.81
same,pKd,[21]; [26],3.87
same,pKd,[22]; [26],4.88
same,pKd,[23]; [26],5
same,pKd,[24]; [26],4.71
same,pKd,[25]; [26],below the threshold
"QKNRKAQEDL [CES3, Q6UWW8]",pKd,[1]; [26],below the threshold
same,pKd,[2]; [26],below the threshold
same,pKd,[3]; [26],below the threshold
same,pKd,[4]; [26],below the threshold
same,pKd,[5]; [26],below the threshold
same,pKd,[6]; [26],below the threshold
same,pKd,[7]; [26],below the threshold
same,pKd,[8]; [26],below the threshold
same,pKd,[9]; [26],3.63
same,pKd,[10]; [26],below the threshold
same,pKd,[11]; [26],below the threshold
same,pKd,[12]; [26],below the threshold
same,pKd,[13]; [26],3.78
same,pKd,[14]; [26],below the threshold
same,pKd,[15]; [26],below the threshold
same,pKd,[16]; [26],below the threshold
same,pKd,[17]; [26],below the threshold
same,pKd,[18]; [26],below the threshold
same,pKd,[19]; [26],below the threshold
same,pKd,[20]; [26],below the threshold
same,pKd,[21]; [26],below the threshold
same,pKd,[22]; [26],below the threshold
same,pKd,[23]; [26],below the threshold
same,pKd,[24]; [26],below the threshold
same,pKd,[25]; [26],below the threshold
"NLNSSEGVPDLLV [SARS-CoV-E, P59637]",pKd,[1]; [27],below the threshold
same,pKd,[2]; [27],3.88
same,pKd,[3]; [27],below the threshold
same,pKd,[4]; [27],below the threshold
same,pKd,[5]; [27],below the threshold
same,pKd,[6]; [27],below the threshold
same,pKd,[7]; [27],below the threshold
same,pKd,[8]; [27],below the threshold
same,pKd,[9]; [27],below the threshold
same,pKd,[10]; [27],below the threshold
same,pKd,[11]; [27],below the threshold
same,pKd,[12]; [27],below the threshold
same,pKd,[13]; [27],below the threshold
same,pKd,[14]; [27],below the threshold
same,pKd,[15]; [27],4.06
same,pKd,[16]; [27],below the threshold
same,pKd,[17]; [27],below the threshold
same,pKd,[18]; [27],below the threshold
same,pKd,[19]; [27],below the threshold
same,pKd,[20]; [27],below the threshold
same,pKd,[21]; [27],below the threshold
same,pKd,[22]; [27],below the threshold
same,pKd,[23]; [27],below the threshold
same,pKd,[24]; [27],below the threshold
same,pKd,[25]; [27],below the threshold
"LPAHHNATRL [SLC34A1, Q06495;Q06495-1]",pKd,[1]; [26],below the threshold
same,pKd,[2]; [26],3.99
same,pKd,[3]; [26],below the threshold
same,pKd,[4]; [26],below the threshold
same,pKd,[5]; [26],below the threshold
same,pKd,[6]; [26],below the threshold
same,pKd,[7]; [26],below the threshold
same,pKd,[8]; [26],3.96
same,pKd,[9]; [26],below the threshold
same,pKd,[10]; [26],below the threshold
same,pKd,[11]; [26],below the threshold
same,pKd,[12]; [26],below the threshold
same,pKd,[13]; [26],below the threshold
same,pKd,[14]; [26],below the threshold
same,pKd,[15]; [26],below the threshold
same,pKd,[16]; [26],below the threshold
same,pKd,[17]; [26],below the threshold
same,pKd,[18]; [26],below the threshold
same,pKd,[19]; [26],4.09
same,pKd,[20]; [26],below the threshold
same,pKd,[22]; [26],below the threshold
same,pKd,[23]; [26],below the threshold
same,pKd,[24]; [26],4.15
same,pKd,[25]; [26],below the threshold
